Source: PMC8353492

What was measured:
[1] = biological target: NOX2 phox complex (rhodamine-tagged cytochrome b558 (gp91 plus p22), p40, p47 and p67), cell-free system (UniProt P04839); assay: rhodamine fluorescence intensity over time; fully preactivated (GTP-bound) Rac added to the cell-free NOX2 phox complex with rhodamine-tagged cytochrome b558 (subunits 100 nM), SDS 100 μM; 10 mM MgCl2, 50 mM KCl, 1 mM NaCl, 0.2 mM NADPH, 10 mM GTP, 10 mM Mops pH 7.4
[2] = biological target: NOX2 phox complex (rhodamine-tagged cytochrome b558 (gp91 plus p22), p40, p47 and p67), cell-free system (UniProt P04839); assay: rhodamine fluorescence intensity over time; initially inactive (GDP-bound) Rac added to the cell-free NOX2 phox complex with rhodamine-tagged cytochrome b558 after a fraction of preactivated wt Rac (∼2 mol %); SDS 100 μM; assay buffer with NADPH and GTP, pH 7.4; also with H2O2 (unaffected) or ascorbic acid 10 mM (enhanced)

Substance	fold slower binding than wt Rac [1]	fold slower rate of binding than wt Rac [2]
K132E Rac (from UniProt P63000 1-192) (natural protein)	1.5 fold	1.5 fold
L134R Rac (from UniProt P63000 1-192) (natural protein)	1.5 fold	1.5 fold
